Test results: the RNAGym collection of RNA variant scans (doi:10.1073/pnas.2313332121)

B1: TPR t1 (parent)
chain: GACCAAUCUGCCCUCAGAGCUCGAGAACAUCUUCGGAUGCAGAGGAGGCAGGCUUCGGUGGCGCGAUAGCGCCAACGUCCUCAACCUCCAAUGCAUCCCACCACAUGAUGAUGCCUGAAGAGCCUUGGUUUUUUG

Variants of: B1
Assay: polymerase ribozyme fitness, log enrichment relative to wild type (log ratio); higher = more active; in vitro selection for triplet polymerase activity
Outline: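 The heterodimeric triplet polymerase ribozyme's subunits were each mutagenized into PCR-built libraries and transcribed. Every library was selected once, in triplicate, by annealing with a biotinylated primer, the partner subunit and triplets, incubating frozen at −7 °C, gel-excising extended constructs, capturing on streptavidin beads and running RT-PCR. Input and output libraries were Illumina-sequenced, with genotypes kept only at ≥10 input reads and ≥1 read per output. Fitness, from inverse-variance-weighted replicate averages, is the base-2 logarithm of genotype enrichment over wild-type enrichment.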

| Variant | polymerase ribozyme fitness (log ratio) |
| --- | --- |
| C22G C104A C123A | -3.01 |
| G23A G61A | -4.6 |
| A24G A29G C56A U87G G110A U133A | -3.1 |
| G23A C94A A111G | -5.95 |
| C22U A37G G61U U112C U126G G128A | -4.46 |
| A24G A46U C72U U126G G128C | -4.57 |
| G23A A43C A84G U87C G117U | -6.59 |
| C22U A100C | -4.93 |
| A24G G71A G127U | -5.42 |
| G23U C123A | -5.92 |
| G23U G35A A46U G47U G71A G117C U130A | -6.34 |
| A24C C49U C82U | -5.77 |
| A24C C73G A83U C114G | -6.1 |
| C22U | -3.85 |
| C22G A37U U87G | -3.6 |
| C22U C40U G57U | -5.18 |
| G23A U112A | -4.45 |
| C22U G71A U78A | -4.62 |
| A24G G71U C86G | -3.88 |
| G23U A26C A43U G93A G117C | -7.04 |
| C22G G45A U54A A95C C114U | -5.19 |
| C22G G63U | -4.31 |
| C22G G39U | -3.5 |
| C22G C56U C104A | -2.51 |

| Variant | polymerase ribozyme fitness (log ratio) |
| --- | --- |
| A24G C73G G120A | -2.15 |
| A24G C49U G60U U129A | -3.61 |
| C22G G52U C73U A95C | -5.41 |
| C22U C70A | -4.49 |
| A24G C31U G60C U96G U106A G120C | -4 |
| C22U U55G C123A | -4.35 |
| A24G A75U | -2.53 |
| A24G U55G | -1.71 |
| A24G C73U U87C | -1.49 |
| C22G A50U C56U C76U C88G C124G | -5.33 |
| G23A C72U C85U | -6.02 |
| G25A A74U A100C U109A U130A | -6.43 |
| C22U G63C C88A U130C | -5.23 |
| C22U U78C | -3.42 |
| G23A G113C | -5.19 |
| C22G C53G C123G | -2.61 |
| C22U U33A G36A G42A C72U U87A G113A | -6.59 |
| C22G U131A | -3.47 |
| A24G C56A G60U A83C | -2.27 |
| G23U G44C C53G C94A U106G G113A | -7.53 |
| C22G C34G C70A C123A | -6.39 |
| C22U G93U | -5.26 |
| C22U G93A | -3.97 |
| C22U C72U | -3.69 |

| Variant | polymerase ribozyme fitness (log ratio) |
| --- | --- |
| G23A G69A U78C G117C | -6.47 |
| A24G U59C U87A | -2.51 |
| C22G C53U G57C U78C C104A C124G | -1.59 |
| C22G G63C G69C U112A | -5.1 |
| C22G C70A | -4.66 |
| C22G U96G C104G | -5.47 |
| A24G G48A G93A C97U A111G | -3.16 |
| C22G G61C C124U U133C | -2.74 |
| C22G C49A G127A U129G | -4.21 |
| G23U C72U | -6.65 |
| A24G C62A C89G G113C C115A A118C | -6.92 |
| C22G A43U A46G U59A G120C | -4.94 |
| C22U C82A C101A | -4.64 |
| A24G U112A | -0.197 |
| G23U C70G A91C C98U | -7.47 |
| C22U C31G A50U C72G C82A A95G G107C | -5.28 |
| C22U G57U | -4.03 |
| A24G G51U | -4.9 |
| C22G G61A C62U C104U G120A | -4.48 |
| A24G G58U | -1.2 |
| A24U A41C G42U C62G A83G C94G C123A G127A | -6.99 |
| C22G C31A U92C U96A A111U | -5.09 |
| C22G G42U A84U C115A C124G | -3.07 |
| C22U G52C | -4.83 |

| Variant | polymerase ribozyme fitness (log ratio) |
| --- | --- |
| G23A A46C C124A | -5.92 |
| C22U G61C | -4.87 |
| C22G C56A C64U C80G C101G U130A | -5.63 |
| C22G G63U U92G G110A | -5.8 |
| G23U G48U C62A C64A C86U C99A G117U | -7.32 |
| C22G G61U | -2.12 |
| C22G G61C | -3.76 |
| G23C G93A | -6.59 |
| G23U C62A C99A G113U G127C | -5.56 |
| C22U A90G | -4.43 |
| C22G A41U C88G U116G A121G | -4.87 |
| A24G C123G | -0.893 |
| A24U G47A G110A C114A | -6.75 |
| G23U A43U G60A | -7.42 |
| C22U C40G | -4.26 |
| C22G G48C C72U C124U | -2.66 |
| A24G A50C G63U A118U G122A | -7.26 |
| A24G C88A C115A | -1.84 |
| A24G C86G | -2.33 |
| A24G C86U | -2.07 |
| A24G G36C C49A G71U | -3.84 |
| A24G A29U G47A A74G U87A U109G | -6.31 |
| C22G A83U C89G A121G | -3.33 |
| G23U C73A | -6.12 |

| Variant | polymerase ribozyme fitness (log ratio) |
| --- | --- |
| A24U G122U | -5.4 |
| C22U G60C | -4.82 |
| C22G G93A | -3.42 |
| G23U G71C C94U C115U | -6.24 |
| A24C C86U G110A | -5.7 |
| C22U C31G G63C C82A U87C U112A | -6.33 |
| C22U C86G A100C A121U | -4.27 |
| C22G U87G G113U A119G G127C | -4.58 |
| C22G C86A | -3.83 |
| G23U U112G | -5.53 |
| C22G A90C U92C G120C | -3.7 |
| A24G G42U G60U A66U C88G A121G | -3.8 |
| C22G C98U | -4.52 |
| G23A | -4.43 |
| G23U | -6.05 |
| G23C | -6.4 |
| C22G C49G A84U C86U | -4.89 |
| C22G G52U G63C G93A | -4.47 |
| C22G G60C A95C A121U | -2.32 |
| C22U G93C C114A | -6.86 |
| C22U C53A C72U A95G C104A | -4.54 |
| C22U U112A | -2.83 |
| G23C G120A | -5.95 |
| A24G G48U G110A U132A | -3.72 |

| Variant | polymerase ribozyme fitness (log ratio) |
| --- | --- |
| A24U G47A G52A G61A C101G C114G G122A | -7.25 |
| C22G C104A | -5.33 |
| A24G C98U C101A | -4.13 |
| A24G C56U U125G | -2.02 |
| G23U C53U | -5.67 |
| A24G G71U | -1.76 |
| A24U G52U U55C C64A C82A C86G C99A G110A A119G | -7.53 |
| C22U G63C | -4.47 |
| C22U G63U | -4.76 |
| C22U G63A | -4.36 |
| A24U A37G A108G G110U A121C | -6.34 |
| G23A G36A | -5.32 |
| G23A G36C | -6.17 |
| A24G C73U C88U C101U | -2.26 |
| A24U C53U | -6.23 |
| A24G G39A C70U A121G | -0.648 |
| C22G C62G | -4.53 |
| C22G C62A | -3.99 |
| C22G A50C G60U C115A | -2.18 |
| G23A C62A | -7.09 |
| C22G A43U C72G U106A C115A | -1.97 |
| C22G G42U G44U C89U | -4.83 |
| C22U A83U | -4.1 |
| G23C C28U C102G U112A C115A G120A | -8.12 |

| Variant | polymerase ribozyme fitness (log ratio) |
| --- | --- |
| C22G U55G G60U C62G U78C | -5.09 |
| C22G C72G U81A | -4.32 |
| C22G G35C | -5.43 |
| A24G U54C C62G | -3.96 |
| G23C C123U | -5.53 |
| C22G G23A C97U G120C | -3 |
| C22U U55G C72A U106A | -3.49 |
| C22U A43U C86U | -5.15 |
| C22U A24G G47A U54A G57A G61A U81A | -6.51 |
| C22G G63U C88G | -5.64 |
| A24U C88G | -5.62 |
| G23A U38A G58C A121C C124A | -6.22 |
| C22G A46C | -3.97 |
| C22U A26U U54G A118U | -4.35 |
| C22U G45U G47C | -7.47 |
| A24G G48A | -1.73 |
| G23A G63C C76U C101U A111G | -5.22 |
| G23A G69U C115U C123G | -6.34 |
| A24G U78C C114U C115A | -5.31 |
| A24G C64U U96G A111C | -3.27 |
| G23U U33G C49G C53G U59G G71A U78A A84U C94G A100U | -8.02 |
| C22G C79A C94U G110U A119G U133A | -3.44 |
| C22U C115G | -4.6 |
